Reference: doi:10.1101/2020.10.29.360719, “Phase separation of the LINE-1 ORF1 protein is mediated by the N-terminus and coiled-coil domain” (bioRxiv, 2020)
Values belong to the binder of their own block, whether it stands above or below them.

Tests used:
[1] = biological target: the molecule itself; test: SEC; gel filtration, GE HiPrep 16/60 Sephacryl S-300 HR, 20 mM Tris pH 8.0, 1 M NaCl, 1 mM DTT; self-association (trimer)
[2] = biological target: T1, ORF1_(53-152) (coiled-coil domain of ORF1) (human, UniProt Q9UN81 53-152); test: NMR titration; 15N-1H HSQC and 15N relaxation of the 15N-enriched N-terminal construct with non-labeled coiled-coil construct added (equimolar, 700 uM each in Fig. 3C); 25 °C; 20 mM HEPES pH 7.25 or 20 mM MES pH 6.0, 200 mM NaCl, 1 mM DTT; details: both partners purified
T1 construct: Non-labeled in the NMR experiments; also called full-length coiled-coil domain; trimeric coiled-coil domain; source: E. coli BL21STAR(DE3), purified (Ni-NTA, Sephacryl S-300 gel filtration)
T1 sequence (looked up): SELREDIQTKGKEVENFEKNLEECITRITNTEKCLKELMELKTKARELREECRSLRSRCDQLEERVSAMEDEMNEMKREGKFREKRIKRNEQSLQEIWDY

B1: ORF1_(1-131) (domain or fragment, human, UniProt Q9UN81 1-131, looked up)
chain: MGKKQNRKTGNSKTQSASPPPKERSSSPATEQSWMENDFDELREEGFRRSNYSELREDIQTKGKEVENFEKNLEECITRITNTEKCLKELMELKTKARELREECRSLRSRCDQLEERVSAMEDEMNEMKRE
notes: LINE-1 ORF1 protein, human, residues 1-131 (N-terminus and coiled-coil domain lacking the C-terminal 22 residues); source: E. coli BL21STAR(DE3), purified (Ni-NTA, gel filtration)
stoichiometry N [1]: 3

binding result [2]: binds
B2: ORF1_(1-53) (disordered N-terminal region of ORF1) (domain or fragment, human, UniProt Q9UN81 1-53, looked up)
chain: MGKKQNRKTGNSKTQSASPPPKERSSSPATEQSWMENDFDELREEGFRRSNYS
notes: LINE-1 ORF1 protein, human, residues 1-53; 15N (and for assignment 13C) isotope enriched for NMR; also called N-terminus; N-terminal region (1-53); source: E. coli BL21STAR(DE3), purified (Ni-NTA, heat 70°C, gel filtration); not shown: histidine tag, C-terminal, kept

binding result [2]: binds
B3: ORF1_(1-46) (domain or fragment, human, UniProt Q9UN81 1-46, looked up)
chain: MGKKQNRKTGNSKTQSASPPPKERSSSPATEQSWMENDFDELREEG
notes: LINE-1 ORF1 protein, human, residues 1-46; Observed by 15N-1H HSQC, so isotope enriched; also called truncated ORF1_(1-46) construct; source: E. coli BL21STAR(DE3), purified (Ni-NTA, gel filtration)

B4: full-length ORF1_(1-338) protein (LINE-1 ORF1 protein) (natural protein, human, UniProt Q9UN81 1-338, looked up)
chain: MGKKQNRKTGNSKTQSASPPPKERSSSPATEQSWMENDFDELREEGFRRSNYSELREDIQTKGKEVENFEKNLEECITRITNTEKCLKELMELKTKARELREECRSLRSRCDQLEERVSAMEDEMNEMKREGKFREKRIKRNEQSLQEIWDYVKRPNLRLIGVPESDVENGTKLENTLQDIIQENFPNLARQANVQIQEIQRTPQRYSSRRATPRHIIVRFTKVEMKEKMLRAAREKGRVTLKGKPIRLTADLSAETLQARREWGPIFNILKEKNFQPRISYPAKLSFISEGEIKYFIDKQMLRDFVTTRPALKELLKEALNMERNNRYQPLQNHAKM
notes: LINE-1 (L1) ORF1 protein, human, residues 1-338, 40 kDa; No tag removal is described; The histidine tag is only named in the legends for ORF1_(1-53); also called L1 ORF1 protein; wild-type ORF1; source: E. coli BL21STAR(DE3), purified (Ni-NTA, Sephacryl S-300 gel filtration)
stoichiometry N [1]: 3

B5: ORF1_(1-141) (domain or fragment, human, UniProt Q9UN81 1-141, looked up)
chain: MGKKQNRKTGNSKTQSASPPPKERSSSPATEQSWMENDFDELREEGFRRSNYSELREDIQTKGKEVENFEKNLEECITRITNTEKCLKELMELKTKARELREECRSLRSRCDQLEERVSAMEDEMNEMKREGKFREKRIKR
notes: LINE-1 ORF1 protein, human, residues 1-141 (N-terminus and coiled-coil domain lacking the C-terminal 12 residues); source: E. coli BL21STAR(DE3), purified (Ni-NTA, gel filtration)
stoichiometry N [1]: 3
